The results in this text go back to patent US10087225B2, “Formulation of MK2 inhibitor peptides” (MOERAE MATRIX, INC., priority 2015, dated 2018).

Series [1] is described as follows: Heat-accelerated stability of MMI-0100 in buffers pH 4-8 (pH, appearance, HPLC assay, impurities). Conditions: in citrate. An excerpt:
Testing of stability samples included pH (initial only), appearance, HPLC assay and impurities. CC=clear and colorless.

The next series deals with JNK1α1(h) (Homo sapiens, UniProt P45983). The experiment in a line: Kinase Profiling Assay. Type of series: biochemical.
The target in the next series is FGFR2(N549H)(h) (Homo sapiens, UniProt P21802, N549H). Put plainly: Kinase Profiling Assay. It is filed as biochemical.
In a further series the target is SIK(h) (Homo sapiens, UniProt P57059). Put plainly: Kinase Profiling Assay. Conditions: 100 μM. It is filed as biochemical.
In another series the target is SAPK2a(h) (Homo sapiens, UniProt Q16539). Put plainly: Kinase Profiling Assay. Type of series: biochemical. Conditions: 100 μM.
Another series has as its target GSK3α(h) (Homo sapiens, UniProt P49840). Put plainly: Kinase Profiling Assay. Type of series: biochemical. Conditions: 100 μM.
Another series deals with VRK2(h) (Homo sapiens, UniProt Q86Y07). Put plainly: Kinase Profiling Assay. Type of series: biochemical. Conditions: 100 μM.
For another series, the target named is MARK1(h) (Homo sapiens, UniProt Q9P0L2). Put plainly: Kinase Profiling Assay. Conditions: 100 μM. It is filed as biochemical.
Another series deals with JNK2α2(h) (Homo sapiens, UniProt P45984). Put plainly: Kinase Profiling Assay. It is filed as biochemical. Conditions: 100 μM.
The next series deals with c-RAF(h) (Homo sapiens, UniProt P04049). Put plainly: Kinase Profiling Assay. Conditions: 100 μM. Type of series: biochemical.
Another series has as its target Rsk3(h) (Homo sapiens, UniProt Q15349). The experiment in a line: Kinase Profiling Assay. Type of series: biochemical. Conditions: 100 μM.
The target in a further series is Hck(h) (Homo sapiens, UniProt P08631). Put plainly: Kinase Profiling Assay. Type of series: biochemical. Conditions: 100 μM.
In the next series the target is Ab1(Q252H)(h) (Homo sapiens, UniProt P00519, Q252H). The experiment in a line: Kinase Profiling Assay. Type of series: biochemical. Conditions: 100 μM.
The next series has as its target HIPK3(h) (Homo sapiens, UniProt Q9H422). Put plainly: Kinase Profiling Assay. It is filed as biochemical. Conditions: 100 μM.
The target in a further series is LIMK1(h) (Homo sapiens, UniProt P53667). The experiment in a line: Kinase Profiling Assay. Conditions: 100 μM. Type of series: biochemical.
The target in the next series is CDK1/cyclinB(h) (Homo sapiens, UniProt P06493). The experiment in a line: Kinase Profiling Assay. Type of series: biochemical. Conditions: 100 μM.
For the next series, the target named is T1, EphA1(h) (Homo sapiens, UniProt P21709).
T1 sequence (P21709 26-976): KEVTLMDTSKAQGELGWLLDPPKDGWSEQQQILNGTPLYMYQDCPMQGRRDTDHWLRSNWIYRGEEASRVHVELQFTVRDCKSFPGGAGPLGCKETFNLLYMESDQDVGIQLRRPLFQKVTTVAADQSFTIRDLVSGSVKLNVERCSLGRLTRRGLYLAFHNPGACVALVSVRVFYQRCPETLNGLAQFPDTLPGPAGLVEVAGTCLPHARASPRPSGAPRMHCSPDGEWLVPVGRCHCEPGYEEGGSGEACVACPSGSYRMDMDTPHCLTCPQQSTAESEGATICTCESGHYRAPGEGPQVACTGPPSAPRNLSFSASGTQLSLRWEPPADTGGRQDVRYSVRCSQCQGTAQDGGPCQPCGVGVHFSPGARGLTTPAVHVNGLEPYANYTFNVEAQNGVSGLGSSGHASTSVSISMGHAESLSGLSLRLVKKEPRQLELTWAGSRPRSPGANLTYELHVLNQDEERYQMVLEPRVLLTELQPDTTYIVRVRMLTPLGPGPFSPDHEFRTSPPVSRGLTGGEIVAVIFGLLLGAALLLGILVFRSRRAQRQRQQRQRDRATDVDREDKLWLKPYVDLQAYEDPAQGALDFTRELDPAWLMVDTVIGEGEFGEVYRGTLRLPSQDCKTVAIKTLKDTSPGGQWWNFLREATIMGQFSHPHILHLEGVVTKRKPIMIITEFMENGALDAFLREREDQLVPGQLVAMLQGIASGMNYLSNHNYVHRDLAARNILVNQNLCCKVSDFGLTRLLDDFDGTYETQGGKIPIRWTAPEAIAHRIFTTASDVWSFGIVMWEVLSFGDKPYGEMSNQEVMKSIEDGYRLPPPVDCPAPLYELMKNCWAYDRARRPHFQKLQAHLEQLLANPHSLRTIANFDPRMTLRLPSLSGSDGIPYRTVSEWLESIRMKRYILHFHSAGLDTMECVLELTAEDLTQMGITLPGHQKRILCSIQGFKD
The experiment in a line: Kinase Profiling Assay. It is filed as biochemical. Conditions: 100 μM.

The next series concerns the target CK1γ1(h) (Homo sapiens, UniProt Q9HCP0). Put plainly: Kinase Profiling Assay. Conditions: 100 μM. Type of series: biochemical.
A further series deals with T2, TAK1(h) (Homo sapiens, UniProt O43318).
T2 sequence (O43318 1-303 limits assumed): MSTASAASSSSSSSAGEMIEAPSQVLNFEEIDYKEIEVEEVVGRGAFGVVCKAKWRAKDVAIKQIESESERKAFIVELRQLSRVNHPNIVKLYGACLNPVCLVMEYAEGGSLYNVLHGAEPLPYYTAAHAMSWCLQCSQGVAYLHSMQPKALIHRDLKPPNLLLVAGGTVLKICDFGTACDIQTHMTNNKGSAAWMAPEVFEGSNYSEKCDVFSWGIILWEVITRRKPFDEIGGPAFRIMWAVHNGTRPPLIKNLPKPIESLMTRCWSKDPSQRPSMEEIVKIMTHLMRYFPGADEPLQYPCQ
The experiment in a line: Kinase Profiling Assay. It is filed as biochemical. Conditions: 100 μM.

A further series addresses CK2α2(h) (Homo sapiens, UniProt P19784). Put plainly: Kinase Profiling Assay. It is filed as biochemical. Conditions: 100 μM.
The target in another series is CLK2(h) (Homo sapiens, UniProt P49760). Put plainly: Kinase Profiling Assay. It is filed as biochemical. Conditions: 100 μM.

Chain of LIMK1(h) (P53667 whole entry): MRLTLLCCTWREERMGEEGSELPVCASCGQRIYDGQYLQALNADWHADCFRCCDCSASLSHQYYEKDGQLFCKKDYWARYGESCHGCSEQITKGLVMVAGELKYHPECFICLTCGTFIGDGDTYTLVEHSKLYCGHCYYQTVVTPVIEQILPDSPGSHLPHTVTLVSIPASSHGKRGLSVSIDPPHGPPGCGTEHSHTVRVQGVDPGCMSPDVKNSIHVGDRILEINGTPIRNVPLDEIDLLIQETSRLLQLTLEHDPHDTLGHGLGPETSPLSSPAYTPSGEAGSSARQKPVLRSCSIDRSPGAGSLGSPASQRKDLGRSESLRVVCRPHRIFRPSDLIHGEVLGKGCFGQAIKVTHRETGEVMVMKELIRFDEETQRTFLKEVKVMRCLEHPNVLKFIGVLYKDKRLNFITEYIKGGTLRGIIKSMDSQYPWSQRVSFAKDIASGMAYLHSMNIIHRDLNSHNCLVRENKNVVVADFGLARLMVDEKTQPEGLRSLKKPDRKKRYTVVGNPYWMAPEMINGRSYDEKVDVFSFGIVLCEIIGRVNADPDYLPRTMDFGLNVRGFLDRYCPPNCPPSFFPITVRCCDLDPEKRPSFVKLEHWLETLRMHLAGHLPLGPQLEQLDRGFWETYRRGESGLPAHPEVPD
Chain of CK1γ1(h) (Q9HCP0 whole entry): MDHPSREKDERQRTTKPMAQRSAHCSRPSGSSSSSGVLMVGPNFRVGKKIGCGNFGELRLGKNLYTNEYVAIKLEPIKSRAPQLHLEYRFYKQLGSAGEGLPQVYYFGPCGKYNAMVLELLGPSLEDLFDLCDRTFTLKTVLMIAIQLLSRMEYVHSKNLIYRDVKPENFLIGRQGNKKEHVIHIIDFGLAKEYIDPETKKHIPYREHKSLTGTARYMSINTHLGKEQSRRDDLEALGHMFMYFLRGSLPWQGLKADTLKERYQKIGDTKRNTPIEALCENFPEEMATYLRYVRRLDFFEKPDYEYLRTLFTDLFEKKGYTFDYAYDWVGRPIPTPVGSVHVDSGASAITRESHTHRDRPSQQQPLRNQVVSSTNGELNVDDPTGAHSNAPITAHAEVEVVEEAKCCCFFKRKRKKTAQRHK
Chain of FGFR2(N549H)(h) (P21802 22-821 N549H): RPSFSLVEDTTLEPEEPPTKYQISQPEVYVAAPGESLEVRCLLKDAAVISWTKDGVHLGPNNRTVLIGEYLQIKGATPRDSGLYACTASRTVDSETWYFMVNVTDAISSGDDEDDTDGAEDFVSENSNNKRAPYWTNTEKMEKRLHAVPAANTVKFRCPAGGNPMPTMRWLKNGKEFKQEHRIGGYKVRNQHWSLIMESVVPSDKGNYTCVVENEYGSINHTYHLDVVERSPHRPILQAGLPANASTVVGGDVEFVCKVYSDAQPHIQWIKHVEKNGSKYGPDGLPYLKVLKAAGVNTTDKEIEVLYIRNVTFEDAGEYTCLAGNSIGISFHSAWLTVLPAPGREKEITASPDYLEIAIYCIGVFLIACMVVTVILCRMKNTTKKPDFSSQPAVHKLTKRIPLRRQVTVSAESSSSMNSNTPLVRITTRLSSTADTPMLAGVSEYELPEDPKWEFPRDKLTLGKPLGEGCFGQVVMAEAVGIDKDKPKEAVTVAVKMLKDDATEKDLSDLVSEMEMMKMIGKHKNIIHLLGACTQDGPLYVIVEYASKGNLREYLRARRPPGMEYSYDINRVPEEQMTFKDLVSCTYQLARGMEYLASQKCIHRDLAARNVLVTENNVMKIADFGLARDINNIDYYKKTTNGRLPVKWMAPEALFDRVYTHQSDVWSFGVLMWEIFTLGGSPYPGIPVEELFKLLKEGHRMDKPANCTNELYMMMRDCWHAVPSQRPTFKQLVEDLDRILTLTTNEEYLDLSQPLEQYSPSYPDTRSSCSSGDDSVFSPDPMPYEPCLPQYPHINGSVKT
Chain of HIPK3(h) (Q9H422 whole entry): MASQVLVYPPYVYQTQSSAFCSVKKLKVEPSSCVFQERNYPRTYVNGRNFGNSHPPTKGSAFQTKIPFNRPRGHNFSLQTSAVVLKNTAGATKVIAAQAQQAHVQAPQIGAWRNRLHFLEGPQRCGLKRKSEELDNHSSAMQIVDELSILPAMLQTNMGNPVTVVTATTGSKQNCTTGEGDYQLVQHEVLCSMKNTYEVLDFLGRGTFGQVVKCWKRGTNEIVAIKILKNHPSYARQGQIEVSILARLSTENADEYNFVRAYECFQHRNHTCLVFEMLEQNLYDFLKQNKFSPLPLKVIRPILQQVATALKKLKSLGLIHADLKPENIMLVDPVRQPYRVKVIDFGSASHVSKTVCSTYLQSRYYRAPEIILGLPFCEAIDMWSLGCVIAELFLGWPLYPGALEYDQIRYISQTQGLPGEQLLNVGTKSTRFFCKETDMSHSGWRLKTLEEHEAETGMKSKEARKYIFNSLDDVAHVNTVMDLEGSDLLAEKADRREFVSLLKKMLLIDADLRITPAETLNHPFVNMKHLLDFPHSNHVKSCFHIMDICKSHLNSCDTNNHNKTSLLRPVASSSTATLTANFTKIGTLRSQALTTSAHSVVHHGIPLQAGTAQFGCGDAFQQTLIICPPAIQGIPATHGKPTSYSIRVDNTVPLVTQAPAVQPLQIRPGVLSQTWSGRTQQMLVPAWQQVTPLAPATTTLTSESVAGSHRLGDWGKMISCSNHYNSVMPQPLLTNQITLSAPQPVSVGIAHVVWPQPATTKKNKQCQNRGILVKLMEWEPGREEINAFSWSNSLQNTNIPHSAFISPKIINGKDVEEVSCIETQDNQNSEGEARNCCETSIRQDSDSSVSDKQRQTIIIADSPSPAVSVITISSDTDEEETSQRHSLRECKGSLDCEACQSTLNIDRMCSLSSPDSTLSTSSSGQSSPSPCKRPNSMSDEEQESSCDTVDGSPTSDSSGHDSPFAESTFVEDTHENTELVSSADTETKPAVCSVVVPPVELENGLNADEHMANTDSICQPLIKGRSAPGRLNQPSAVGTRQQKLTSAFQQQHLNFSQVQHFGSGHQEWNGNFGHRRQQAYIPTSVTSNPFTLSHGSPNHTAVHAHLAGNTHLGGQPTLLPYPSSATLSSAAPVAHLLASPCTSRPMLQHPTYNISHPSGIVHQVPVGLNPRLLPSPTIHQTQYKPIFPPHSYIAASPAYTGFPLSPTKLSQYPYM
Chain of VRK2(h) (Q86Y07 whole entry): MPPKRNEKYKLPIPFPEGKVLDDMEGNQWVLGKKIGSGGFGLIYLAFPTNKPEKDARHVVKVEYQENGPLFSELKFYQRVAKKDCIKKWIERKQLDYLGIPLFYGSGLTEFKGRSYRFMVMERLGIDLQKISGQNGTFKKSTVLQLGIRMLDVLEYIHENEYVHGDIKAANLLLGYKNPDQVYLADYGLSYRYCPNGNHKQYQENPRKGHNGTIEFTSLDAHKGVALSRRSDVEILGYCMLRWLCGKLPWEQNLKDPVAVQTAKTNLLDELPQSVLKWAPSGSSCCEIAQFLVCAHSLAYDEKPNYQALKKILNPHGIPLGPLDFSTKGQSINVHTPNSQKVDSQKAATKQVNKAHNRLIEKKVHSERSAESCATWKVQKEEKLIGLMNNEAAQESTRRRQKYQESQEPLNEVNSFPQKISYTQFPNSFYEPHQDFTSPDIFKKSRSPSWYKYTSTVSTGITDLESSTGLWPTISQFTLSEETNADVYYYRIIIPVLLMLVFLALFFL
Chain of SIK(h) (P57059 whole entry): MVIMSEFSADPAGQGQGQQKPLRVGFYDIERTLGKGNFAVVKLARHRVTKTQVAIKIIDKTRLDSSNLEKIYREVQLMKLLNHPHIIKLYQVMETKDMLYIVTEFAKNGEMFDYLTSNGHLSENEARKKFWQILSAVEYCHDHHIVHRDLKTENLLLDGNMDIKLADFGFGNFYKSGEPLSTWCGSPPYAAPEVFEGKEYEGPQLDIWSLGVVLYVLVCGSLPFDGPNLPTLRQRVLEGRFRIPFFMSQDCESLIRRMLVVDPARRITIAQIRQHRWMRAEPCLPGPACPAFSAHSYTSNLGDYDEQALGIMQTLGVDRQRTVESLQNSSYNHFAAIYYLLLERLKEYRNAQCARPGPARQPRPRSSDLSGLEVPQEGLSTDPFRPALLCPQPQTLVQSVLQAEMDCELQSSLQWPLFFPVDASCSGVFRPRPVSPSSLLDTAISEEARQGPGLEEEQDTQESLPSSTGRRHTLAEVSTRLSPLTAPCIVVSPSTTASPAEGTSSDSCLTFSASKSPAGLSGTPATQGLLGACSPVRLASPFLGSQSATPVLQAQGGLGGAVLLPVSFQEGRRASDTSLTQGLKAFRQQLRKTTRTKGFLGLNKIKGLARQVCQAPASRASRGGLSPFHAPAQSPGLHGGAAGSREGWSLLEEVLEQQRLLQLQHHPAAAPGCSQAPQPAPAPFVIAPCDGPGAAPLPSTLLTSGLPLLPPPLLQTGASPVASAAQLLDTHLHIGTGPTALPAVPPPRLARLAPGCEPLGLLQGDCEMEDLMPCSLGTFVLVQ
Chain of SAPK2a(h) (Q16539 whole entry): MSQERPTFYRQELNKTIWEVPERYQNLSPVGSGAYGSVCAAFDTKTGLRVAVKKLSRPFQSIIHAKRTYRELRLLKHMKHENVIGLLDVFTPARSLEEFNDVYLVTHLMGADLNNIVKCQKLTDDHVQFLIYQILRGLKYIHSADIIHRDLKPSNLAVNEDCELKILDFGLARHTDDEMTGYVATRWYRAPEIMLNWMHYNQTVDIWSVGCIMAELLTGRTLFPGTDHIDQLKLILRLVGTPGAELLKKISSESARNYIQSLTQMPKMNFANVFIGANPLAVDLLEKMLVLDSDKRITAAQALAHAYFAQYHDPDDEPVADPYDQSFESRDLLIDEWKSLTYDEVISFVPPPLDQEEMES

As to H-YARAAARQARAKALARQLGVAA-OH [MMI-0100], the “pH of greatest stability” value in series [1] stood at 6. Also, the activity at 100 µM at JNK1α1(h) turned out to be 91%; on FGFR2(N549H)(h) it was 95%.
As to “HRRIKAWLKKIKALARQLGVAA (Mammalian) [MMI-0500]”, the “% activity” value was determined as 40% with SIK(h); 52% with SAPK2a(h); 175% with GSK3α(h); 169% in the series with VRK2(h); 110% with MARK1(h); 81% in the series with JNK2α2(h). Besides, the “% activity” value was determined as 19% in the series with c-RAF(h); 23% with Rsk3(h); 78% with Hck(h); 40% with Ab1(Q252H)(h); 85% with HIPK3(h); 87% with LIMK1(h). Also, the “% activity” value came to 57% with CDK1/cyclinB(h) and 40% with EphA1(h).
Consider “YARAAARQARAKALNRQLGVA (Mammalian) [MMI-0200]”, for which the “% activity” value with CK1γ1(h) stood at 98%; in the series with TAK1(h) it was 124%; with CK2α2(h), 88%; with CLK2(h) it was 97%.
